Common to all, as to assay: yeast scFv FACS
Assay [1] concerns the target BoNT/A1 holotoxin (Hall hyper) (Clostridium botulinum, UniProt P0DPI0 2-1296).
Assay [2] has as its target BoNT/A2 holotoxin (FRI-H1A2) (Clostridium botulinum, UniProt Q45894 2-1296).
The target of assay [3] is BoNT/A light chain (recombinant) (Clostridium botulinum, UniProt P0DPI0 1-448).

Bounds are passed on as bounds.

BoNT/A2 holotoxin (FRI-H1A2), sequence (Q45894 2-1296): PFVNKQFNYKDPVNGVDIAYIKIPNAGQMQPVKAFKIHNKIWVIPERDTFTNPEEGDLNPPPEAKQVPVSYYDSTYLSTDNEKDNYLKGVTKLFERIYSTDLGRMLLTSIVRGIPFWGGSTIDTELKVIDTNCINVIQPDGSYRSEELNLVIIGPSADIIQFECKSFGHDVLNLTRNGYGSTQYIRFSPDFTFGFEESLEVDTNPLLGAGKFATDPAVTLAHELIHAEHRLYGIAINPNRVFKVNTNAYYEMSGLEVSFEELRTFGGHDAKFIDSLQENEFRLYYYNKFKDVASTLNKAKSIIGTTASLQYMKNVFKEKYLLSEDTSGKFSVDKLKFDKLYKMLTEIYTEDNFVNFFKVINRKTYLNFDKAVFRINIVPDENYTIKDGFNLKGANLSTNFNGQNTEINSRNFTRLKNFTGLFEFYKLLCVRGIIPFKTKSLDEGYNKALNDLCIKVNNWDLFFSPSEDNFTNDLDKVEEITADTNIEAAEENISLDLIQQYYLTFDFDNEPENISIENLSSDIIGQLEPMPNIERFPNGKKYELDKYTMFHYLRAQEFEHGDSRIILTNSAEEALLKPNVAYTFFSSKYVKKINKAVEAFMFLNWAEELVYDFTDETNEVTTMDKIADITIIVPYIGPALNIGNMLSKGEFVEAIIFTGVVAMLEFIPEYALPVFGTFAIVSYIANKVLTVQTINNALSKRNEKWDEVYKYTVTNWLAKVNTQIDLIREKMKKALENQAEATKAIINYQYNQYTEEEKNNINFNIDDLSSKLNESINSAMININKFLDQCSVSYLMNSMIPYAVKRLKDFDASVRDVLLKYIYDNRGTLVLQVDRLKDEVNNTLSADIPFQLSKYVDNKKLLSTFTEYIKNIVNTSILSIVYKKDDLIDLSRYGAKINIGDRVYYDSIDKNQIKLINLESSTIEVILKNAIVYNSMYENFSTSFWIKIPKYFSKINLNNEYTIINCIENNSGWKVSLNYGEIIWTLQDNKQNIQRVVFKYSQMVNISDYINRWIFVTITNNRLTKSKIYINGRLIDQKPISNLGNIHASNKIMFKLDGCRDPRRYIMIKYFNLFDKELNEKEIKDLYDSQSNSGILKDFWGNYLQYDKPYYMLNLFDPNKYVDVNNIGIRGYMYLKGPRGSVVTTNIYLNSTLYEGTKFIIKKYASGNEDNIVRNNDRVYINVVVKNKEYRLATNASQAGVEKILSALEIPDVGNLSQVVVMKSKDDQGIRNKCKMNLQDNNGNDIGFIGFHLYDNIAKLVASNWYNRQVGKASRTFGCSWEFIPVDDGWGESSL

B1: 10H11 scFv (scFv)
scFv: QIQLLQSGAELVKPGASVKLSCTASGFNIKDYYMHWVKQRPEQGLEWIGRIDPEDGDTEYAPKFQGKATMTADTSSNTAYLQLSSLTSEDSAVYFCARLNYDYPYWYFDVWGTGTTLTVSSVDLKSGGSTSGSGKPGSGEGSSGSARQIVLTQSPAIMSASPGEKVTMTCSASSSVSYMYWYQQKPGSSPRLLIYDTSNLASGVPVRFSGSGSGTSYSLTISRMEAEDAATYYCQQWSSYPLTFGAGTRLELK
notes: mouse
As a reminder, the Kd is a measure of binding affinity in units of concentration. Turning to B1, the binding result in assay [1] and in assay [2] was “no binding” in each case. Further, the Kd in assay [3] was 0.92 nM.

B2: 1D9 scFv (scFv)
scFv: EVKLVESGGDLVKPGGSLKLSCAASGFTFSSYGMSWVRQTPDKRLEWVATISSGGSYTYYPDNVKGRFTISRDNAKNNLFLQMSHLKSEDTAMYYCARDWDYYYGSYWYFDVWGTGTSVTVSSVDLKSGGSTSGSGKPGSGEGSSGSARENVLTQSPAILSASPGEKVTMTCRASSSVSYMHWYQQKPGSSPRLLIYDTSNLASGVPVRFSGSGSGTSYSLTISRMEAEDAATYYCQQWSSYPYTFGGGTKLEIK
notes: mouse
With B2, the binding result in assay [1] and in assay [2] was “no binding” throughout. For the same molecule, the equilibrium dissociation constant (Kd) in assay [3] was 9.13 nM.

B3: 10F9 scFv (scFv)
scFv: EVQLQQSGAELVKPGASVKLSCKASGYTFTSYWMHWIKQRPGQGLEWIGVIDPSDSYTNYNQKFKGKATLTVDTSSSTAYMQLSSLTSEDSAVYYCATGGNGFFDYWGQGTTLTVSSVDLKSGGSTSGSGKPGSGEGSSGSARDIVLTQSPASLAVSLGQRATISCRASESVDYDGDSYMNWYQQKPGQPPKLLIYAASNLESGIPARFSGSGSGTDFTLNIHPVEEEDAATYYCLQSNEAPWTFGGGTKLELK
notes: mouse
In the case of B3, the values for the Kd in assay [1], in assay [2] and in assay [3] were above 500 nM, above 500 nM and 0.09 nM, respectively.

B4: ING2 scFv (scFv, V domains shown)
VH: QVQLVQSGAEVKKPGSSVKVSCKASGDTFNRNAIAWVRQAPGQGLEWMGRIIPNLRTTHYAQKFQGRVAITADKHTNTVFMELSSLRSEDTAVYYCARDPYYYSYMDVWGKGTTVTVSS
VL: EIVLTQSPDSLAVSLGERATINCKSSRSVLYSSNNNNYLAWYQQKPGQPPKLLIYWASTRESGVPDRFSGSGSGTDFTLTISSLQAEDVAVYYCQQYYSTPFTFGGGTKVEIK
On to B4, for which the Kd in assay [1] is 0.11 nM; in assay [2], 0.12 nM; in assay [3] it was above 16.3 nM.

B5: 11D8 scFv (scFv)
scFv: EVQLQQSGAELVRPGTSVKLSCKASGYTFTSYWMHWVKQRPGQGLEWIGVIDPSDSYTNYNQKFKGKATLTVDTSSSTAYMQLSSLASEDSAVYYCARYPGNRAMDYWGQGTSVTVSSVDLKSGGSTSGSGKPGSGEGSSGSARDIVLTQSPASLAVSLGQRATISCRASESVDYDGDSYMNWYQQKPGQPPKLLIYAASNLESGIPARFSGSGSGTDFTLNIHPVEEEDAATYYCLQSNEAPWTFGGGTKLEIK
notes: mouse
On to B5, for which the binding result in assay [1] and in assay [2] was “no binding” throughout. Besides, the dissociation constant (Kd) in assay [3] was 0.22 nM.

B6: 10B4 scFv (scFv)
scFv: QVQLKESGPGLVKPSQTVSLTCTVTGYSITNGNHWWNWIRQVSGSKLEWIGYISSSGYTDINPSLKSRISITRDTSKNQLFLQLNSVTTEDIATYYCARDDGYYEALDYWGQGTSVTVSSVDLKSGGSTSGSGKPGSGEGSSGSARDIVMSQSPAIMSASPGEKVTLTCSASSSVSSNYLYWYQQKPGSSPKLWIYSTSNLASGVPARFSGSGSGTSYSLTISRVEAEDAATYYCQQWSSNPPTFGGGTKLEIK
notes: mouse
Consider B6, for which the Kd is above 500 nM in assay [1], 252 nM in assay [2] and 1.53 nM in assay [3].

B7: 10B12 scFv (scFv)
scFv: EVQLQQSGAELVRPGTSVKLSCKSSGYTFTSDWMHWVIQRPGQGLEWIGVIDPSDSYTNYNQKFKGKATLTVDTSSSTAYMHLSSLTSEDSAVYYCARREGHYYGKAMDYWGQGTSVTVSSVDLKSGGSTSGSGKPGSGEGSSGSARDIVMSQSPASLAVSLGQRATISCRASESVDYDGDSYMNWYQQKPGQPPKLLIYAASNLESGIPARFSGSGSGTDFTLNIHPVEEEDAATYYCLQSNEAPWTFGGGTKLEIK
notes: mouse
B7: the binding result in assay [1] is “no binding”. Also, the dissociation constant (Kd) in assay [2] stood at 140 nM; in assay [3], 0.53 nM.

B8: 7C8 scFv (scFv)
scFv: LQLKQSGPGLVKPSQSLSLTCSVTGYSITSGYYWYWIRQFPGNKLEWMGYISYDGSNNYNPSLKNRISITRDTSKNQFFLKLNSVTTEDTATYYCARNLGLWYFDVWGTGTPLTVSSVDLKSGGSTSGSGKPGSGEGSSGSAREIVLTQSPAILSASPGEKVTMTCRASSSVRYMHWYQQKPGSSPKPWIYATSNLASGVPARFSGSGSGTSYSLTISRVEAEDAATYYCQQWSGNAPTFGGGTKLEIK
notes: mouse
Take B8: the Kd in assay [1] is 0.73 nM; in assay [2], 0.45 nM; in assay [3], 0.94 nM.

B9: 1C10 scFv (scFv)
scFv: QIQLLQPGTELVRPGTSVKLSCKASGYTFTNYWMHWVKQRPGQGLEWIGVIDPSDSYTNYNQKFKGKATLTVDTSSSTAYMQLSSLTFEDSAVYYCARYSGPYAMDYWGQGTTLTVSAVDLKSGGSTSGSGKPGSGEGSSGSAREIVLTQSPASLAVSLGQRATISCRACESVDYDGDSYMNWYQQKPGQPPKLLIYAASNLESGIPARFSGSGSGTDFTLNIHPVEEEDAATYYCLQSNEAPWTFGGGTKLEIK
notes: mouse
As to B9, the binding result in assay [1] and in assay [2] was “no binding” throughout. For the same molecule, in assay [3], the dissociation constant (Kd) is 4.85 nM.

B10: 1D2 scFv (scFv)
scFv: QVQLKESGAELMKPGASVKLSCKATGYTFTGYWIEWVKQRPGHGLEWIGEILPGSGSTNYNEKFKGKATFTADTSSNTAYMQLSSLTTEDSAIYYCASIYYGHDYWGQGTTLTVSSVDLKSGGSTSGSGKPGSGEGSSGSARDIVMTQSPKFMSTSVGDRVSVTCKASQNVGTNVAWYQQKPGQSPKALIYSASYRYSGVPDRFTGSGSGTDFTLTISNVQSEDLAEYFCQQYNSYPYTFGGGTKLEIK
notes: mouse
B10: the binding result in assay [1] and in assay [2] was “no binding” throughout. In assay [3], the Kd was 6.4 nM.

B11: 1D8 scFv (scFv)
scFv: EVQLQESGAELVRPGTSVKLSCKASGYTFTSYWMHWVKQRPGQGLEWIGVIDPSDSYTNYNQKFKGKATLTVDTSSSTAYMQLSSLTSEDSAVYYCARGSSGYVNYWGQGTTLTVSSVDLKSGGSTSGSGKPGSGEGSSGSARDIVMSQSPASLAVSLGQRATISCRASESVDYDGDSYMNWYQQKPGQPPKLLIYAASNLESGIPARFSGSGSGTDFTLNIHPVEEEDAATYYCLQSNEAPWTFGGGTKLEIK
notes: mouse
Consider B11, for which the binding result in assay [1] and in assay [2] was “no binding” throughout. In assay [3], the Kd stood at 3.35 nM.

B12: 10H10 scFv (scFv)
scFv: QVQLQQSGAELVRPGTSVKLSCKASGYTFTSYWMHWVKQRPGQGLEWIGVIDPSDSYTNYNQKFKGKATLTVDTSSSTAYMQLSSLTSEDSAVYYCARGGGRSSLDYWGQGTSVTVSSVDLKSGGSTSGSGKPGSGEGSSGSARDVVMTQTPASLAVSLGQRATISCKASQSVDYDGDSYMNWYQQKPGQPPKLLIYAASSLESGIPARFSGSGSGTDFTLNIHPVEEEDAATYYCQQSNEDPYTFGGGTKLEIK
notes: mouse
B12: the binding result in assay [1] and in assay [2] was “no binding” each time. Besides, the Kd in assay [3] worked out at 11.1 nM.

These data come from patent US20220089784A1 (University of California, published 2022).
